US20180185510A1, “ANTIBODY DRUG CONJUGATES OF KINESIN SPINDEL PROTEIN (KSP) INHIBITORS WITH ANTI-B7H3-ANTIBODIES” (BAYER PHARMA AKTIENGESELLSCHAFT, priority 2015, published 2018)

T1: B7H3 on B7H3-positive human tumour cells (A498, MCF-7, Caki-2, 786-0) (human, UniProt Q5ZPR3 29-534)
T1 sequence (looked up): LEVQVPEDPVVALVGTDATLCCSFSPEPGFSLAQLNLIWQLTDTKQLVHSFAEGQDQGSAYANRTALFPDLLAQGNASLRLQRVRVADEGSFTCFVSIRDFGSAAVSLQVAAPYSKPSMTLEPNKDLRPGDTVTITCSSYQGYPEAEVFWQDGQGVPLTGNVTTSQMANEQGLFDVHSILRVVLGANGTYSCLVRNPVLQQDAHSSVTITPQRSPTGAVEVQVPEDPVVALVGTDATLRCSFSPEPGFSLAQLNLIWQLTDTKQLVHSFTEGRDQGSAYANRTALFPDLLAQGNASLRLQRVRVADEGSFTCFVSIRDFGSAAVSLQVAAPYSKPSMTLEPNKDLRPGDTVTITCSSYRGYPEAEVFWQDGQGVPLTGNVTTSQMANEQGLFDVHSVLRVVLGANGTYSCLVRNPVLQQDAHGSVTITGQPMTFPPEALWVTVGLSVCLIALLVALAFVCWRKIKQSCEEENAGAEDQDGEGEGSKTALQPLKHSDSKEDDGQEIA

T2: human B7H3 (RnDSystems, 2318-B3-050/CF) (human, UniProt Q5ZPR3 29-461)
T2 construct: Bought antigen, detected with an anti-His HRP antibody, so a His tag is implied
T2 sequence (looked up): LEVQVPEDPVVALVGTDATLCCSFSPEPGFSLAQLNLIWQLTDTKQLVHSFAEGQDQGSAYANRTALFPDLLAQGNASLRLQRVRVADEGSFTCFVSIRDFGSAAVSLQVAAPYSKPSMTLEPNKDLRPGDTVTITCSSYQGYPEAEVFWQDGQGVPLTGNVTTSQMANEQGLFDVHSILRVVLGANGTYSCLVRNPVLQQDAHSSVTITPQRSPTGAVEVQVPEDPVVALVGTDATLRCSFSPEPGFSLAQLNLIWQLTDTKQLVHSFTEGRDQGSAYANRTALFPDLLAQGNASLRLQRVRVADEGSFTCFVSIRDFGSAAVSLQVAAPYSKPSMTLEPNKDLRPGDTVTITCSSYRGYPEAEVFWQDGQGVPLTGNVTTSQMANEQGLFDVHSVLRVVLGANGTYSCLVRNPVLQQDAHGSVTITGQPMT

B1: Example 297L2 (Isomer 1): anti-B7H3 AK1B (TPP-5706) coupled with Intermediate F297 (antibody, human IgG1, kappa, V domains shown)
VH: QVQLQQPGAELVKPGASVKMSCKASGYTFTIYNVHWIKQTPGQGLEWMGTIFPGNGDTSYNQKFKDKATLTTDKSSKTAYMQLNSLTSEDSAVYYCARWDDGNVGFAHWGQGTLVTVSA
VL: DIQMTQSPASLSASVGETVTITCRASENINNYLTWFQQKQGKSPQLLVYHAKTLAEGVPSRFSGSGSGTQFSLKINSLQPEDFGSYYCQHHYGTPPTFGGGTKLEIKR
modifications: KSP inhibitor-linker (Intermediate F297) on cysteine residues of the partially reduced antibody, sites not given; drug/mAb ratio 3.1
B2: Example 275L2: anti-B7H3 AK1B (TPP-5706) coupled with Intermediate F275 (antibody, human IgG1, kappa, V domains shown)
VH: B1 VH
VL: B1 VL
modifications: KSP inhibitor-linker (Intermediate F275) on cysteine residues of the partially reduced antibody, sites not given; drug/mAb ratio 3.8
B3: Example 281L2: anti-B7H3 AK1B (TPP-5706) coupled with Intermediate F281 (antibody, human IgG1, kappa, V domains shown)
VH: B1 VH
VL: B1 VL
modifications: KSP inhibitor-linker (Intermediate F281) on cysteine residues of the partially reduced antibody, sites not given; drug/mAb ratio 2.4
B4: Example 194L2: anti-B7H3 AK1B (TPP-5706) coupled with Intermediate F194 (antibody, human IgG1, kappa, V domains shown)
VH: B1 VH
VL: B1 VL
modifications: KSP inhibitor-linker (Intermediate F194) on lysine residues, sites not given; drug/mAb ratio 2.9
B5: Example 296L2: anti-B7H3 AK1B (TPP-5706) coupled with Intermediate F296 (antibody, human IgG1, kappa, V domains shown)
VH: B1 VH
VL: B1 VL
modifications: KSP inhibitor-linker (Intermediate F296) on cysteine residues of the partially reduced antibody, sites not given; drug/mAb ratio 3.2
B6: Example 240L2: anti-B7H3 AK1B (TPP-5706) coupled with Intermediate F240 (antibody, human IgG1, kappa, V domains shown)
VH: B1 VH
VL: B1 VL
modifications: KSP inhibitor-linker (Intermediate F240) on cysteine residues of the partially reduced antibody, sites not given; drug/mAb ratio 3.5
B7: Example 208L2: anti-B7H3 AK1B (TPP-5706) coupled with Intermediate F104 (stirred at pH 8 overnight) (antibody, human IgG1, kappa, V domains shown)
VH: B1 VH
VL: B1 VL
modifications: KSP inhibitor-linker (Intermediate F104) on cysteine residues of the partially reduced antibody, sites not given; drug/mAb ratio 2.9
B8: TPP-3803 (antibody, human IgG1, kappa, V domains shown)
VH: QVKLQQSGAELVKPGASVKLSCKASGYTFTNYDINWVRQRPEQGLEWIGWIFPGDGSTQYNEKFKGKATLTTDTSSSTAYMQLSRLTSEDSAVYFCARQTTATWFAYWGQGTTVTVSS
VL: DIELTQSPTTLSVTPGDRVSLSCRASQSISDYLHWYQQKSHESPRLLIKYASQSISGIPSRFSGSGSGSDFTLSINSVEPEDVGVYYCQNGHSFPLTFGAGTKLELKR
notes: also called anti-B7H3 AK1A

Legend:
KPL4 = assay: MTT assay, cytotoxicity of metabolites, KPL4; format: cell-based; settings: KPL4, 96 h, 96 h incubation
Method: (§1) The cells were cultivated according to the standard method using the growth media listed under C-1. The test is carried out by detaching the cells with a solution of Accutase in PBS (Biochrom AG #L2143), pelleting, resuspending in culture medium, counting and sowing into a 96-well culture plate with white bottom (Costar #3610) (NCI H292: 2500 cells/well in a total volume of 100 μl). The cells were then incubated in an incubator at 37° C. and 5% carbon dioxide. After 48 h, the medium was replaced. The metabolites in 10 μl of culture medium in concentrations from 10^−5M to 10^−13M were then pipetted to the cells (in triplicate), and the assay was then incubated in an incubator at 37° C. and 5% carbon dioxide. […] To this end, the MTT reagent was incubated with the cells for 4 h, followed by lysis of the cells overnight by addition of the detergent. The dye formed was detected at 570 nm (Infinite M1000 pro, Tecan). The measured data were used to calculate the IC50 of the growth inhibition using the DRC (dose response curve). The proliferation of cells which were not treated with test substance but were otherwise identically treated was defined as the 100% figure.

[1] = test system: NCI-H292: human mucoepidermoid lung carcinoma cells; assay: MTT assay, cytotoxicity of metabolites, NCI-H292; format: cell-based; settings: NCI-H292, 96 h, 96 h incubation
Method: NCI-H292: human mucoepidermoid lung carcinoma cells, ATCC-CRL-1848, standard medium: RPMI 1640 (Biochrom; #FG1215, stab. glutamine)+10% FCS (Biochrom; #S0415).
as §1

[2] = biological target: T1, B7H3 on B7H3-positive human tumour …; assay: cell-based or functional assay
[3] = biological target: T2, human B7H3 (RnDSystems, 2318-B3-050/CF); assay: ELISA; antibody captured on anti-human IgG Fc, antigen 37 ng/ml, anti-His HRP / Amplex Red
Method: TPP5706 was synthesized as described above. Binding of TPP5706 to human B7H3 and to human B7H2 and B7H4 was characterized using ELISAs. […] After washing once with PBS, 0.05% Tween, the plate was blocked with 100% Smart Block (Candor) for one hour at 37° C. The antibody to be tested (e.g. TPP5706 or one of its derivatives) was then attached to the plate (2 μg/ml IgG in PBS, 0.05% Tween, 10% Smart Block; 1 hour, room temperature). […] After washing three times, the plate was incubated with Amplex Red for 30 minutes and then read.

Row | Molecule | IC50 (KPL4) [nM] | IC50 [M] CTG, A498 cells (B7H3-positive) [2] [M] | IC50 [M] CTG, Caki-2 cells (B7H3-positive) [2] [M] | IC50 [M] CTG, MCF-7 cells (B7H3-positive) [2] [M] | also measured
1 | CC(C)(C)[C@H](c1cc(-c2cc(F)ccc2F)cn1Cc1ccccc1)N(CC[C@H](N)C(=O)NCCNC(=O)CNC(=O)CC(SC[C@H](N)C(=O)O)C(=O)O)C(=O)CO (single isomer, unassigned) [Example M14] | 182 |  |  |  | 
2 | CC(C)(C)[C@H](c1cc(-c2cc(F)ccc2F)cn1Cc1ccccc1)N(CC[C@H](N)C(=O)NCCNC(=O)CNC(=O)C(CC(=O)O)SC[C@H](N)C(=O)O)C(=O)CO (single isomer, unassigned) [Example M15] | 169 |  |  |  | IC50 [1]: 133 nM
3 | CC(C)(C)[C@H](c1cc(-c2cc(F)ccc2F)cn1Cc1ccccc1)N(CC[C@H](N)C(=O)NCCOCCN1C(=O)CC(SC[C@H](N)C(=O)O)C1=O)C(=O)CO (stereo partly drawn) [Example M4, S-(1-{2-[2-({(2S)-2-Amino-4-[{(1R)-1-[1-benzyl-4-(2,5-difluorophenyl)-1H-pyrrol-2-yl]-2,2-dimethylpropyl}(glycoloyl)amino]butanoyl}amino)ethoxy]ethyl}-2,5-dioxopyrrolidin-3-yl)-L-cysteine/trifluoroacetic acid (1:1)] | 176 |  |  |  | 
4 | CC(C)(C)[C@H](c1cc(-c2cc(F)ccc2F)cn1Cc1ccccc1)N(CC[C@H](N)C(=O)NCCNC(=O)CSC[C@H](N)C(=O)O)C(=O)CO [Example M7, S-(2-{[2-({(2S)-2-Amino-4-[{(1R)-1-[1-benzyl-4-(2,5-difluorophenyl)-1H-pyrrol-2-yl]-2,2-dimethylpropyl}(glycoloyl)amino]butanoyl}amino)ethyl]amino}-2-oxoethyl)-L-cysteine/trifluoroacetic acid (1:1)] | 92.5 |  |  |  | 
5 | CC(C)(C)[C@H](c1cc(-c2cc(F)ccc2F)cn1Cc1ccccc1)N(CC[C@H](N)C(=O)NCCNC(=O)CNC(=O)CC(SC[C@H](N)C(=O)O)C(=O)O)C(=O)CO (stereo partly drawn) [Example M13, 4-[(2-{[2-({(2S)-2-Amino-4-[{(1R)-1-[1-benzyl-4-(2,5-difluorophenyl)-1H-pyrrol-2-yl]-2,2-dimethylpropyl}(glycoloyl)amino]butanoyl}amino)ethyl]amino}-2-oxoethyl)amino]-2-{[(2R)-2-amino-2-carboxyethyl]sulphanyl}-4-oxobutanoic acid/trifluoroacetic acid (1:1)] | 169 |  |  |  | 
6 | CC(C)(C)[C@H](c1cc(-c2cc(F)ccc2F)cn1Cc1ccccc1)N(CC[C@H](N)C(=O)NCCC(=O)N[C@@H](CCC(=O)O)C(=O)O)C(=O)CO [Example M23, N-{(2S)-2-Amino-4-[{(1R)-1-[1-benzyl-4-(2,5-difluorophenyl)-1H-pyrrol-2-yl]-2,2-dimethylpropyl}(glycoloyl)amino]butanoyl}-beta-alanyl-L-glutamic acid-trifluoroacetic acid (1:1)] | 500 |  |  |  | IC50 [1]: 500 nM
7 | CC(C)(C)[C@H](c1cc(-c2cc(F)ccc2F)cn1Cc1ccccc1)N(CC[C@H](N)C(=O)NCCC(=O)N[C@H](CCC(=O)O)C(=O)O)C(=O)CO [Example M24, N-{(2S)-2-Amino-4-[{(1R)-1-[1-benzyl-4-(2,5-difluorophenyl)-1H-pyrrol-2-yl]-2,2-dimethylpropyl}(glycoloyl)amino]butanoyl}-beta-alanyl-D-glutamic acid-trifluoroacetic acid (1:1)] | 500 |  |  |  | IC50 [1]: 167 nM
8 | CC(C)(C)[C@H](c1cc(-c2cc(F)ccc2F)cn1Cc1ccccc1)N(CC[C@H](N)C(=O)NCCNC(=O)CNC(=O)C(CC(=O)O)SC[C@H](N)C(=O)O)C(=O)CO (stereo partly drawn) [Example M27, 4-[(2-{[2-({(2S)-2-Amino-4-[{(1R)-1-[1-benzyl-4-(2,5-difluorophenyl)-1H-pyrrol-2-yl]-2,2-dimethylpropyl}(glycoloyl)amino]butanoyl}amino)ethyl]amino}-2-oxoethyl)amino]-3-{[(2R)-2-amino-2-carboxyethyl]sulphanyl}-4-oxobutanoic acid-trifluoroacetic acid (1:1)] |  |  |  |  | IC50 [1]: 276 nM
9 | B1 |  | > 3e-07 | > 3e-07 | 7.56e-10 | 
10 | B2 |  | > 3e-07 | > 3e-07 | 9.15e-11 | 
11 | B3 |  | 1.39e-08 | 5.26e-09 | 3.42e-08 | 
12 | B4 |  | 3.57e-10 | 2.75e-10 | 2.08e-10 | 
13 | B5 |  | 6.22e-10 | > 3e-07 | 1.63e-10 | 
14 | B6 |  | 7.49e-10 | > 3e-07 | 1.58e-10 | 
15 | B7 |  |  | 5.99e-09 | 2.42e-10 | 
16 | B8 |  |  |  |  | Quotient signal (B7)/signal (buffer) [3]: 51
